From patent publication US20240209095A1 (published 2024) come the findings set out here.

The term Kd denotes the constant that tells how readily two partners part at equilibrium.

This assay deals with PDL1-hFc (UniProt Q9NZQ7 19-238). As to the kind of experiment: ELISA. On the technique in general: In an ELISA, binding on a coated surface is turned into a signal by an enzyme label.
Sequence of PDL1-hFc (Q9NZQ7 19-238): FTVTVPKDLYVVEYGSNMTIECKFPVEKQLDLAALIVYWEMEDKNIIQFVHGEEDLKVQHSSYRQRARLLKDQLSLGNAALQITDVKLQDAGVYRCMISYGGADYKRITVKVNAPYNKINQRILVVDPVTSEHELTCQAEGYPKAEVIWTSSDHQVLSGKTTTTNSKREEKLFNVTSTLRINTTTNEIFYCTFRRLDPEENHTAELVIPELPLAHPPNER

B1: mouse-human chimera 3C3 MM (antibody, V domains shown)
VH: EVQLQESGPGLTKPSQTLSLTCSVTGYSITSDYWDWIRKFPGNKLEYMGYISYTGSTYYNPSLRSRISITRDTSKNQYYLQLSSVTSEDSATYYCARRGGWLSPFVYWGQGTLVTVSA
VL: DTVMSQSPSSLGVSVGERVTLTCKSRQSLLFSSNQKNSLAWYQQKPGQSPKLLIYWASTRESGVPDRFTGSGSGTDFTLTISSVKSEDLAVYYCQQYYTYPFTFGAGTSLELK
B1 yielded a Kd of 66.6 pM.
